Results on three molecules are retold here after article PMC3878992.

Assay [1] concerns the target eIF4G1 (Saccharomyces cerevisiae) (UniProt P39935). Particulars: cited from earlier work.
In assay [2] the target is Cy5-eIF4E(A124C) (S. cerevisiae) (UniProt P07260). Kind of assay: single-molecule FRET.
Assay [3] has the same target. Kind of assay: single-molecule FRET. The source holds these as a separate data set.

Where two headings read alike, the source gives them in different places.

For eIF4E (from UniProt P07260), the Kd in assay [1] was less than 15 nM.

B1: full-length eIF4G1 (natural protein)
chain: MTDETAHPTQSASKQESAALKQTGDDQQESQQQRGYTNYNNGSNYTQKKPYNSNRPHQQRGGKFGPNRYNNRGNYNGGGSFRGGHMGANSSNVPWTGYYNNYPVYYQPQQMAAAGSAPANPIPVEEKSPVPTKIEITTKSGEHLDLKEQHKAKLQSQERSTVSPQPESKLKETSDSTSTSTPTPTPSTNDSKASSEENISEAEKTRRNFIEQVKLRKAALEKKRKEQLEGSSGNNNIPMKTTPENVEEKGSDKPEVTEKTKPAEEKSAEPEVKQETPAEEGEQGEKGQIKEESTPKVLTFAERLKLKKQQKEREEKTEGKENKEVPVQEETKSAIESAPVPPSEQVKEETEVAETEQSNIDESATTPAIPTKSDEAEAEVEAEAGDAGTKIGLEAEIETTTDETDDGTNTVSHILNVLKDATPIEDVFSFNYPEGIEGPDIKYKKEHVKYTYGPTFLLQFKDKLNVKADAEWVQSTASKIVIPPGMGRGNRSRDSGRFGNNSSRGHDFRNTSVRNMDDRANSRTSSKRRSKRMNDDRRSNRSYTSRRDRERGSYRNEEKREDDKPKEEVAPLVPSANRWVPKFKSKKTEKKLAPDGKTELLDKDEVERKMKSLLNKLTLEMFDAISSEILAIANISVWETNGETLKAVIEQIFLKACDEPHWSSMYAQLCGKVVKELNPDITDETNEGKTGPKLVLHYLVARCHAEFDKGWTDKLPTNEDGTPLEPEMMSEEYYAAASAKRRGLGLVRFIGFLYRLNLLTGKMMFECFRRLMKDLTDSPSEETLESVVELLNTVGEQFETDSFRTGQATLEGSQLLDSLFGILDNIIQTAKISSRIKFKLIDIKELRHDKNWNSDKKDNGPKTIQQIHEEEERQRQLKNNSRSNSRRTNNSSNRHSFRRDAPPASKDSFITTRTYSQRNSQRAPPPKEEPAAPTSTATNMFSALMGESDDEE
B1 registered a Kd in assay [2] of 20 nM.

B2: eIF4G1 eIF4E-binding domain (4EBD) flanked by additional eIF4G1 sequence (amino acids 348-513) (domain or fragment)
chain: EETEVAETEQSNIDESATTPAIPTKSDEAEAEVEAEAGDAGTKIGLEAEIETTTDETDDGTNTVSHILNVLKDATPIEDVFSFNYPEGIEGPDIKYKKEHVKYTYGPTFLLQFKDKLNVKADAEWVQSTASKIVIPPGMGRGNRSRDSGRFGNNSSRGHDFRNTSV
On to B2, for which the Kd in assay [3] turned out to be 20 nM; in assay [2], 25 nM.

As a reminder, the Kd is the concentration at which binding is half-saturated.
